According to US20260201003A1:

Columns and labels:
FcγRI [1] = assay: Biacore; FcγR captured through anti-His antibody; response at end of injection normalised to the standard
FcγRIIIa V158 = FcγRIIIa V158 (UniProt P08637); assay: as above
FcγRI [2] = biological target: FcγRI (UniProt P12314); assay: as above
FcRn = FcRn (UniProt P55899); assay: Biacore; FcRn directly immobilized; response at end of injection normalised to the standard
Flt3 receptor (human) = Flt3 receptor (human) (UniProt P36888); assay: cell-based or functional assay
Sequence of Flt3 receptor (human) (P36888 27-993): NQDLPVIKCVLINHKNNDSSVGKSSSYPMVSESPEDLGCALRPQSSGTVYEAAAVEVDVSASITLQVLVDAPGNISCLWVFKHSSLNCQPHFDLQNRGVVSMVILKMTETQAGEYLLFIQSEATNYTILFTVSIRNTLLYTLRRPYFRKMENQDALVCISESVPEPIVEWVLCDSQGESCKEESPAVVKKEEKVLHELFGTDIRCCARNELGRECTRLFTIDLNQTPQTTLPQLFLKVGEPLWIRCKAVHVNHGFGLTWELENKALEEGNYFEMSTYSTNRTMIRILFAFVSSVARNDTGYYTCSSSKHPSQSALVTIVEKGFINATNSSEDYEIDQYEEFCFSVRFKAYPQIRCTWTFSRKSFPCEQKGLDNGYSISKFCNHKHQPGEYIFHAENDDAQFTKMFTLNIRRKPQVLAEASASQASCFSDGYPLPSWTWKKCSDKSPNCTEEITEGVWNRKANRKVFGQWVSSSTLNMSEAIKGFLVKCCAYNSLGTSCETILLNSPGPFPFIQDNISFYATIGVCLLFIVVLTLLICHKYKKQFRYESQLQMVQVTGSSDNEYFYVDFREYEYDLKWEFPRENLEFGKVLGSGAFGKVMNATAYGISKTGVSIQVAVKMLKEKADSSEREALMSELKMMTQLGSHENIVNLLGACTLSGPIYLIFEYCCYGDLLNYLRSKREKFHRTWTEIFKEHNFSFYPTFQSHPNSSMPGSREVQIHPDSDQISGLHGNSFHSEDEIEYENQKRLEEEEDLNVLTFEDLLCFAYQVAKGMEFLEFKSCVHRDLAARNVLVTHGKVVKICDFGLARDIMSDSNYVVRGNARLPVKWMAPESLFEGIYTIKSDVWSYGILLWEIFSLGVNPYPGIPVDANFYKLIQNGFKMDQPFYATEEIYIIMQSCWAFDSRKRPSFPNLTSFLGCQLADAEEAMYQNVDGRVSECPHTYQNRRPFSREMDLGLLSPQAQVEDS

Sequence of anti-CD20 antibody (ocrelizumab variable domains) with IgG1 NG constant region (constant): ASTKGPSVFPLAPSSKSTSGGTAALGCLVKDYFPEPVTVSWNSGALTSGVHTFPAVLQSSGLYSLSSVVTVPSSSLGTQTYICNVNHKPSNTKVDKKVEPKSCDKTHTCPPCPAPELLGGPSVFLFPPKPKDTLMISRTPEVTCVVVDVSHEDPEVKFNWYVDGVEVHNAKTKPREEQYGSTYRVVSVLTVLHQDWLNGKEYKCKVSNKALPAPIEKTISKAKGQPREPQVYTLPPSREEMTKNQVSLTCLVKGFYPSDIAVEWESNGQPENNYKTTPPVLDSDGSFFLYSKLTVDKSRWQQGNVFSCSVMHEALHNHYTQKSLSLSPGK
Sequence of FcRn (P55899 24-297 limits assumed, form in doubt): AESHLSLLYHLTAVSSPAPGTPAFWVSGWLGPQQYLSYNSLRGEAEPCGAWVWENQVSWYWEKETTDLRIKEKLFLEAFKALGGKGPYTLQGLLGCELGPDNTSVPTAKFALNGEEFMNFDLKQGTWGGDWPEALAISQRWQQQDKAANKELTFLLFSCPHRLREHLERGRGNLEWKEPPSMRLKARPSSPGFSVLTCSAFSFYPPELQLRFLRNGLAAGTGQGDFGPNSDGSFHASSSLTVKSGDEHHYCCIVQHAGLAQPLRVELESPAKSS
Sequence of anti-CD20 antibody (ocrelizumab variable domains) with IgG1 LALAPG constant region (constant): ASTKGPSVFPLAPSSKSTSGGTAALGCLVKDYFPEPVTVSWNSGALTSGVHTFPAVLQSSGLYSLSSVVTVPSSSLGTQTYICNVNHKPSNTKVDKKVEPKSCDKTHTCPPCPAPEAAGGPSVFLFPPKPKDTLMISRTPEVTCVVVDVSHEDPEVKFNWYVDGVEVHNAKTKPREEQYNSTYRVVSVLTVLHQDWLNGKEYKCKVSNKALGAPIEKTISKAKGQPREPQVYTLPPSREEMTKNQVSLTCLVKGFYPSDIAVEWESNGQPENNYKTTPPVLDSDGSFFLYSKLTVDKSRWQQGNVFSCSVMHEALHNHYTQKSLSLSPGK
Sequence of FcγRIIIa V158 (P08637 17-208 F176V limits assumed): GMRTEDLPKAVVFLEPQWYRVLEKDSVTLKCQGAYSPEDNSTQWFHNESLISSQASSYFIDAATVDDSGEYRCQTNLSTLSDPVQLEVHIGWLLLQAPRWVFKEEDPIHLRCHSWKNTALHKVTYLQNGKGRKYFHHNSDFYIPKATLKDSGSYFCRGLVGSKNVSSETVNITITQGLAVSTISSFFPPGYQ
Sequence of FcγRI (UniProt P12314) (P12314 16-288 limits assumed): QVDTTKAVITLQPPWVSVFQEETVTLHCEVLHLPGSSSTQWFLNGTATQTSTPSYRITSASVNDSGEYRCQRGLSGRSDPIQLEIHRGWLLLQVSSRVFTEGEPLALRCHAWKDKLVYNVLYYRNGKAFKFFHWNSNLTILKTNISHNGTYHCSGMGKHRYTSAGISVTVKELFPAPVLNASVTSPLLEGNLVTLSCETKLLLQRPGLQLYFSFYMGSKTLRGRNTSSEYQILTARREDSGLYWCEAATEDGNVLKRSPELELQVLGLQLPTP

Molecule | relative binding level (%) at 10 ug/ml (FcγRI [1]) | relative binding level (%) at 10 ug/ml (FcγRIIIa V158) | relative binding level (%) at 10 ug/ml (FcγRI [2]) | relative binding level (%) at 10 ug/ml (FcRn) | EC50 potency, proliferation of OCI-AML5 cells (Cell Titer Glo, 7 days) (Flt3 receptor (human))
anti-CD20 antibody (ocrelizumab variable domains) with IgG1 LALAPG constant region | -0.34% | 1.36% | 1.74% | 95.9% | –
gCDX-301 (from UniProt P49771 27-179) (ligand) | – | – | – | – | 2.3 pM
anti-CD20 antibody (ocrelizumab variable domains) with IgG2 wildtype constant region (antibody, part only; not given: ocrelizumab variable domains, not shown: another chain or arm of the molecule) constant: ASTKGPSVFPLAPCSRSTSESTAALGCLVKDYFPEPVTVSWNSGALTSGVHTFPAVLQSSGLYSLSSVVTVPSSNFGTQTYTCNVDHKPSNTKVDKTVERKCCVECPPCPAPPVAGPSVFLFPPKPKDTLMISRTPEVTCVVVDVSHEDPEVQFNWYVDGVEVHNAKTKPREEQFNSTFRVVSVLTVVHQDWLNGKEYKCKVSNKGLPAPIEKTISKTKGQPREPQVYTLPPSREEMTKNQVSLTCLVKGFYPSDIAVEWESNGQPENNYKTTPPMLDSDGSFFLYSKLTVDKSRWQQGNVFSCSVMHEALHNHYTQKSLSLSPGK | 179% | 3.85% | 2.43% | 99.4% | –

Next, values leading:

relative binding level (%) at 10 ug/ml (FcγRI [1]) | relative binding level (%) at 10 ug/ml (FcγRIIIa V158) | relative binding level (%) at 10 ug/ml (FcγRI [2]) | relative binding level (%) at 10 ug/ml (FcRn) | EC50 potency, proliferation of OCI-AML5 cells (Cell Titer Glo, 7 days) (Flt3 receptor (human)) | Molecule
0.06% | 2.12% | 4.5% | 86.7% | – | anti-CD20 antibody (ocrelizumab variable domains) with IgG1 NG constant region
14.8% | 3.41% | 70.6% | 66.5% | – | anti-CD20 antibody (ocrelizumab variable domains) with IgG4 SP constant region
